Source: doi:10.1101/2024.02.16.579611 (bioRxiv, 2024)

Columns and labels:
[1] = biological target: T1, KorB (wild type), C-terminally His-tagged (plasmid RK2, UniProt P07674 1-358); test: ITC
T1 sequence: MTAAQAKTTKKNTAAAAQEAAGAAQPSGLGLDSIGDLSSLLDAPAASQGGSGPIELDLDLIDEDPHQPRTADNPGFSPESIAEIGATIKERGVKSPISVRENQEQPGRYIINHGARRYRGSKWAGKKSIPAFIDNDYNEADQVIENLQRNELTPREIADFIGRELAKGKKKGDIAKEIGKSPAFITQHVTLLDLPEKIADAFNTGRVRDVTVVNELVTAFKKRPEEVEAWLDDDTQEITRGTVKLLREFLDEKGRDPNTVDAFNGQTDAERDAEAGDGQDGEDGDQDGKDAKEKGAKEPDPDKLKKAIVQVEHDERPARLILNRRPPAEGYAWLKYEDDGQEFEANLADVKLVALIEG

[2] = biological target: the molecule itself; test: crystal structure

Kd [1]: 4.2 ± 0.5 µM
B1: KorA (wild type), C-terminally His-tagged (natural protein)
chain: MKKRLTESQFQEAIQGLEVGQQTIEIARGVLVDGKPQATFATSLGLTRGAVSQAVHRVWAAFEDKNLPEGYARVTAVLPEHQAYIVRKWEADAKKKQETKR
binding result [2]: binds
